Source: article PMC7440162 (Cell, 2020)

T1: ICAM5 ECD-Fc (human, UniProt Q9UMF0 32-835, biotin on the AviTag (as SPR ligand))
T1 sequence: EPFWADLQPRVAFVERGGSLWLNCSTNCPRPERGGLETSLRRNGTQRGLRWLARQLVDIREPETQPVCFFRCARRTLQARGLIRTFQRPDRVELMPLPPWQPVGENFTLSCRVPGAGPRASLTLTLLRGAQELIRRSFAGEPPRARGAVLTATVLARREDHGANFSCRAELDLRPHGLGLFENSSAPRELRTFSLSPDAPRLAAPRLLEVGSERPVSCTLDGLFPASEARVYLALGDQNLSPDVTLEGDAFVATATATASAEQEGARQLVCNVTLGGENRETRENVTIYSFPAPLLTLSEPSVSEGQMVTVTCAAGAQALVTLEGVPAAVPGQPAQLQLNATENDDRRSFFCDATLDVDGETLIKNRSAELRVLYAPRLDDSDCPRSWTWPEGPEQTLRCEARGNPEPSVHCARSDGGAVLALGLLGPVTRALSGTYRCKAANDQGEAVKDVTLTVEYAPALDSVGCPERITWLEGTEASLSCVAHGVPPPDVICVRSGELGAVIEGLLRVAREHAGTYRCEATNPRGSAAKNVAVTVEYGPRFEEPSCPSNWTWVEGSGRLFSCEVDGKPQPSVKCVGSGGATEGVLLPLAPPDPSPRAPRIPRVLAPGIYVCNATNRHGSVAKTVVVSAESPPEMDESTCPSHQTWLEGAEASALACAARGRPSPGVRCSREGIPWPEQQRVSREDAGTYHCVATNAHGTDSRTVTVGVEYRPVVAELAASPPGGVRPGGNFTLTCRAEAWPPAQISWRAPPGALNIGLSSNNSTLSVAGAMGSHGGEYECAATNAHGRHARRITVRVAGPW

T2: PTPRF ECD-Fc (human, UniProt P10586 30-1263)
T2 sequence: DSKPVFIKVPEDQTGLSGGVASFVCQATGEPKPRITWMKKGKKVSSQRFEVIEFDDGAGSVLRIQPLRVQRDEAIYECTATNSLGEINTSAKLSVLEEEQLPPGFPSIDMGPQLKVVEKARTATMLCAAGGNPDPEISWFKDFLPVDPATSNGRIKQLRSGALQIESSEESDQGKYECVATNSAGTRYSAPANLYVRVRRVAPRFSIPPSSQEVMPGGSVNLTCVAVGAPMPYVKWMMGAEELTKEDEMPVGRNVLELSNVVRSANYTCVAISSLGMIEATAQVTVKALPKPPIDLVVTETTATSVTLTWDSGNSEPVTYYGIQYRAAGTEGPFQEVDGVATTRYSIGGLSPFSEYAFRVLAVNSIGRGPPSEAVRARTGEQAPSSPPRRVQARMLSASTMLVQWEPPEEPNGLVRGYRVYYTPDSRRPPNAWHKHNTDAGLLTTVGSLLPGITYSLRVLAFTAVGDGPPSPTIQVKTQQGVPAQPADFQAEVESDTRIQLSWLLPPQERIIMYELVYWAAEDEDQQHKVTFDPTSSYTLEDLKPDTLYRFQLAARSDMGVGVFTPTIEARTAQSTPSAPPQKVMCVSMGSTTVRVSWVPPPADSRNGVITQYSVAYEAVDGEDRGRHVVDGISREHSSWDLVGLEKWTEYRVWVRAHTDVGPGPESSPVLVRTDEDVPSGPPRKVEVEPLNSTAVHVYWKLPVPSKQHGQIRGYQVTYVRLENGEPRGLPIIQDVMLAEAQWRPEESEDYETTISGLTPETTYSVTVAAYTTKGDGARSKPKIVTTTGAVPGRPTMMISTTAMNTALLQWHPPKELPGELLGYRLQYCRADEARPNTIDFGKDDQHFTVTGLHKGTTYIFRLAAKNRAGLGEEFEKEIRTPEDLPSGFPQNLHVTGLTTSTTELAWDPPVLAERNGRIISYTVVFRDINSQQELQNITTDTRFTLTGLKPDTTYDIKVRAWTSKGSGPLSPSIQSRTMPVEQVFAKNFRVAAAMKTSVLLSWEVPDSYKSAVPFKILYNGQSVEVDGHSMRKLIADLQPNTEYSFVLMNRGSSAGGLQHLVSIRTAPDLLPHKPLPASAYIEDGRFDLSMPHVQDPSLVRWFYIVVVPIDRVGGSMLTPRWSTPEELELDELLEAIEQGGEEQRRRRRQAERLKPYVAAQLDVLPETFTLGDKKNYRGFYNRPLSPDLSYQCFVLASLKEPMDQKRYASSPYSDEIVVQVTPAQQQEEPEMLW

T3: PTPRS ECD-Fc (human, UniProt Q13332 30-1282)
T3 sequence: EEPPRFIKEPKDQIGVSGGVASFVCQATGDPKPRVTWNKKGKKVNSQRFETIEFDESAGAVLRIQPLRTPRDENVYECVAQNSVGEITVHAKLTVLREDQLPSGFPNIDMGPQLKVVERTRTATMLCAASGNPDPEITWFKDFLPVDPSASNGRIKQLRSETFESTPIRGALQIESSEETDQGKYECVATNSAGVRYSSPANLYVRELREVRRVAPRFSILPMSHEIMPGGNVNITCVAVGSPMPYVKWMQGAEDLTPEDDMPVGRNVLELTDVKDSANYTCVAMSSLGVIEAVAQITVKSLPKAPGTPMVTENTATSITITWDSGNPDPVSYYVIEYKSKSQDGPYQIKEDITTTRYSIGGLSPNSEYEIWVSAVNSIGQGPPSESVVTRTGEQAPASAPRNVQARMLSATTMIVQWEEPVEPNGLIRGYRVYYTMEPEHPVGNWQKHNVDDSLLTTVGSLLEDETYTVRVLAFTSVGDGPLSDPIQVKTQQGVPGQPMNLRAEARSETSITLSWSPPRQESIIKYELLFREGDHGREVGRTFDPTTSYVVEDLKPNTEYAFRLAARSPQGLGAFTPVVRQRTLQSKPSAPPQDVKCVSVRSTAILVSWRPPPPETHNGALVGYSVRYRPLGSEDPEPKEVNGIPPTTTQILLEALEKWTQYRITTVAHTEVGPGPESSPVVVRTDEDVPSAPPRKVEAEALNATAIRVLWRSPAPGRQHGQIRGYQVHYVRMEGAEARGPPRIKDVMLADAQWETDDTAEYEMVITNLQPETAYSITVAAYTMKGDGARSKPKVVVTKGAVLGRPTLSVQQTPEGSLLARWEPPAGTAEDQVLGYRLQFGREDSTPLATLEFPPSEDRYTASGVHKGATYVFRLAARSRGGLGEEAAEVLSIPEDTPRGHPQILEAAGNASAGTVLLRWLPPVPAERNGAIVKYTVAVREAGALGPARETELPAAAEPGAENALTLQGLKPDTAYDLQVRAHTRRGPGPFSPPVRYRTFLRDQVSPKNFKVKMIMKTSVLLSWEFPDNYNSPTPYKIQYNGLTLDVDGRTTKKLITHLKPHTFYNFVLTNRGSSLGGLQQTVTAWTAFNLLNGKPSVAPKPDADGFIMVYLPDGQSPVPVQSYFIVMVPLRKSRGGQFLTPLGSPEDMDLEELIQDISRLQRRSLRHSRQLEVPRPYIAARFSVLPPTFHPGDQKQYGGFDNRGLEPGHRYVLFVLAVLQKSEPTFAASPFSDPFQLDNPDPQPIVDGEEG

T4: PTPRD ECD-Fc (human, UniProt P23468 21-1265)
T4 sequence: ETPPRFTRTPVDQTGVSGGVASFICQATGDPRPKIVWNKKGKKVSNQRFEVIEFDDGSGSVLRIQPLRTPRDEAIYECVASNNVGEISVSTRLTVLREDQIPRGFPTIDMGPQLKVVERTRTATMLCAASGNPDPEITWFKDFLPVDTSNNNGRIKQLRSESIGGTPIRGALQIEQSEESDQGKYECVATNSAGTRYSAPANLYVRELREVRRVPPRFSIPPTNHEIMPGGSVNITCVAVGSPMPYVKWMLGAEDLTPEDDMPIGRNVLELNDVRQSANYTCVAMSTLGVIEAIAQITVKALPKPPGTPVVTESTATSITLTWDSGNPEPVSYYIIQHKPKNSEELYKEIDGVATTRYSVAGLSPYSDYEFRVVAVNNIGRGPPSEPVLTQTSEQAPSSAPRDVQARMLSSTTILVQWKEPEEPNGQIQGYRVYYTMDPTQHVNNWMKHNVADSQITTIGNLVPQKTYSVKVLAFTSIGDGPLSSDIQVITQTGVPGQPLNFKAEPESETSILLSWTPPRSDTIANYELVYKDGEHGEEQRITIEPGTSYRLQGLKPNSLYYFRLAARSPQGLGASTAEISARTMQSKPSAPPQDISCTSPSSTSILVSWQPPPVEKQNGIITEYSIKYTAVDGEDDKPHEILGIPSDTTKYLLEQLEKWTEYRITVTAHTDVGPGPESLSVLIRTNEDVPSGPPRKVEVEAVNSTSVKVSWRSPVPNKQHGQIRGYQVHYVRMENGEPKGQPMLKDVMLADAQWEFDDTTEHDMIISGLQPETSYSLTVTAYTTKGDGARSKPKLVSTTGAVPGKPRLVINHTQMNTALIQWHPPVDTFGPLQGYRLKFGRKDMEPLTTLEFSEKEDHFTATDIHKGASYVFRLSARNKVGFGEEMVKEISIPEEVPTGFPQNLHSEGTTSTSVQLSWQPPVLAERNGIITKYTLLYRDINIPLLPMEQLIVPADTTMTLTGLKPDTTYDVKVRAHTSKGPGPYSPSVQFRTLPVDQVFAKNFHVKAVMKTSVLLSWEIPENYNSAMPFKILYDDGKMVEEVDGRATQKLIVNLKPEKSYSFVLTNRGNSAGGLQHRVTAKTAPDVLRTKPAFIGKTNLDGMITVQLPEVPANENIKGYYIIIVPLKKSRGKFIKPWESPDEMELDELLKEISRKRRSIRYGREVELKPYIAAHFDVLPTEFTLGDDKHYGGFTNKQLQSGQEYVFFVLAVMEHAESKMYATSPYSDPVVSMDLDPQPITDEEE

B1: human ISLR2 ECD-Fc (Fc fusion)
chain: SCPEPCACVDKYAHQFADCAYKELREVPEGLPANVTTLSLSANKITVLRRGAFADVTQVTSLWLAHNEVRTVEPGALAVLSQLKNLDLSHNFISSFPWSDLRNLSALQLLKMNHNRLGSLPRDALGALPDLRSLRINNNRLRTLAPGTFDALSALSHLQLYHNPFHCGCGLVWLQAWAASTRVSLPEPDSIACASPPALQGVPVYRLPALPCAPPSVHLSAEPPLEAPGTPLRAGLAFVLHCIADGHPTPRLQWQLQIPGGTVVLEPPVLSGEDDGVGAEEGEGEGDGDLLTQTQAQTPTPAPAWPAPPATPRFLALANGSLLVPLLSAKEAGVYTCRAHNELGANSTSIRVAVAATGPPKHAPGAGGEPDGQAPTSERKSTAKGRGNSVLPSKPEGKIKGQGLAKVSILGETETEPEEDTSEGEEAEDQILADPAEEQRCGNGDPSRYVSNHAFNQSAELKPHVFELGVIALDVAEREARVQLTPLAARWGPGPGGAGGAPRPGRRPLRLLYLCPAGGGAAVQWSRVEEGVNAYWFRGLRPGTNYSVCLALAGEACHVQVVFSTKKELPS
modifications: biotin on the AviTag (as SPR ligand)
B2: SALM3 ECD-Fc (Fc fusion)
chain: CPLPCVCQNLSESLSTLCAHRGLLFVPPNVDRRTVELRLADNFIQALGPPDFRNMTGLVDLTLSRNAITRIGARAFGDLESLRSLHLDGNRLVELGTGSLRGPVNLQHLILSGNQLGRIAPGAFDDFLESLEDLDLSYNNLRQVPWAGIGAMPALHTLNLDHNLIDALPPGAFAQLGQLSRLDLTSNRLATLAPDPLFSRGRDAEASPAPLVLSFSGNPLHCNCELLWLRRLARPDDLETCASPPGLAGRYFWAVPEGEFSCEPPLIARHTQRLWVLEGQRATLRCRALGDPAPTMHWVGPDDRLVGNSSRARAFPNGTLEIGVTGAGDAGGYTCIATNPAGEATARVELRVLALPHGGNSSAEGGRPGPSDIAASARTAAEGEGTLESEPAVQVTEVTATSGLVSWGPGRPADPVWMFQIQYNSSEDETLIYRIVPASSHHFLLKHLVPGADYDLCLLALSPAAGPSDLTATRLLGCAHFSTLPASPLCHALQAHVLGGTL
modifications: biotin on the AviTag (as SPR ligand)
B3: SALM5 ECD-Fc (Fc fusion)
chain: QICPKRCVCQILSPNLATLCAKKGLLFVPPNIDRRTVELRLADNFVTNIKRKDFANMTSLVDLTLSRNTISFITPHAFADLRNLRALHLNSNRLTKITNDMFSGLSNLHHLILNNNQLTLISSTAFDDVFALEELDLSYNNLETIPWDAVEKMVSLHTLSLDHNMIDNIPKGTFSHLHKMTRLDVTSNKLQKLPPDPLFQRAQVLATSGIISPSTFALSFGGNPLHCNCELLWLRRLSREDDLETCASPPLLTGRYFWSIPEEEFLCEPPLITRHTHEMRVLEGQRATLRCKARGDPEPAIHWISPEGKLISNATRSLVYDNGTLDILITTVKDTGAFTCIASNPAGEATQIVDLHIIKLPHLLNSTNHIHEPDPGSSDISTSTKSGSNTSSSNGDTKLSQDKIVVAEATSSTALLKFNFQRNIPGIRMFQIQYNGTYDDTLVYRMIPPTSKTFLVNNLAAGTMYDLCVLAIYDDGITSLTATRVVGCIQFTTEQDYVRCHFMQSQFLGGTM
modifications: biotin on the AviTag (as SPR ligand)

Key:
Test in all cases: SPR
[1] = target: T1, ICAM5 ECD-Fc
[2] = target: LTF-Fc (human, UniProt P02788, biotin on the AviTag (as SPR ligand))
Chain of LTF-Fc (P02788 20-710): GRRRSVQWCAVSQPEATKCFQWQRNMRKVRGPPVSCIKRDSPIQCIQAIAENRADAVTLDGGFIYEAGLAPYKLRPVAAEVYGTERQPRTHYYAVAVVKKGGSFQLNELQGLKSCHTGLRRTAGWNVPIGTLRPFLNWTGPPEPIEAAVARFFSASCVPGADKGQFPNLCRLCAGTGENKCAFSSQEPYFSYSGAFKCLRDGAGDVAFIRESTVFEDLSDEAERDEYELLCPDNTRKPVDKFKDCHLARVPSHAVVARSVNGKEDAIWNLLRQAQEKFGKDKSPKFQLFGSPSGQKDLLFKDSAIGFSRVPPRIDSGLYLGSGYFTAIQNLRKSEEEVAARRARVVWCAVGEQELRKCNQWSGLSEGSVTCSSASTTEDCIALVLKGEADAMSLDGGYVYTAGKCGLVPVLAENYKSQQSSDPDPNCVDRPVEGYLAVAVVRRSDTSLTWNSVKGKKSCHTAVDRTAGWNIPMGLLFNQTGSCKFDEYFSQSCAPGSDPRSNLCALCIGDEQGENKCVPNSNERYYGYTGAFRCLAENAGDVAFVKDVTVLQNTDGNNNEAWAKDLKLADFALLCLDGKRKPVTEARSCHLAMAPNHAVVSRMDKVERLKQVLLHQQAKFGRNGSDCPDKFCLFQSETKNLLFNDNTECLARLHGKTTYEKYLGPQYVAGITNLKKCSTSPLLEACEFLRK

[3] = target: T2, PTPRF ECD-Fc
[4] = target: T3, PTPRS ECD-Fc
[5] = target: T4, PTPRD ECD-Fc

Row | Binder | binding result [1] | binding result [2] | binding result [3] | binding result [4] | binding result [5]
1 | B1 | binds | binds |  |  | 
2 | B2 |  |  | binds | binds | binds
3 | B3 |  |  | binds | binds | binds
